Test results published in patent publication US20150359849A1, “METHODS OF INCREASING NEURONAL CONNECTIVITY AND/OR TREATING A NEURODEGENERATIVE CONDITION” (PRESIDENT AND FELLOWS OF HARVARD COLLEGE, priority 2013, published 2015).

B1: OSTN: recombinant human osteocrin protein; a secreted protein produced by cells of the osteoblast lineage (protein, listed as Homo sapiens)
chain: MLDWRLASAHFILAVTLTLWSSGKVLSVDVTTTEAFDSGVIDVQSTPTVREEKSATDLTAKLLLLDELVSLENDVIETKKKRSFSGFGSPLDRLSAGSVDHKGKQRKVVDHPKRRFGIPMDRIGRNRLSNSRG
B2: BDNF: a neuronal activity-regulated secreted factor (protein, UniProt P23560 19-247, looked up)
Neurotrophic factor BDNF …: APMKEANIRGQGGLAYPGVRTHGTLESVNGPKAGSRGLTSLADTFEHVIEELLDEDQKVRPNEENNKDADLYTSRVMLSSQVPLEPPLLFLLEEYKNYLDAANMSMRVRRHSDPARRGELSVCDSISEWVTAADKKTAVDMSGGTVTVLEKVPVSKGQLKQYFYETKCNPMGYTKEGCRGIDKRHWNSQCRTTQSYVRALTMDSKKRIGWRFIRIDTSCVCTLTIKRGR

Columns and labels:
Assay type in all cases: cell-based
[1] = test system: human primary neuronal cultures; assay: neuronal connectivity assay: human primary neuronal cultures fixed and stained for dendritic and synaptic markers
Experimental: FIGS. 3A-3E are experimental data showing that osteocrin promotes human neuronal connectivity. FIGS. 3A-3D are fluorescent images of primary human neurons fixed and immunostained with neuronal and synaptic markers, e.g., microtubule-associated protein 2 (MAP2), postsynaptic density protein-95 (PSD95) and synapsin after cultured for about 10 days in vitro with and without recombinant OSTN (˜50 ng/mL). […] FIG. 3E is a bar graph showing quantification results of excitatory synapse number in human neuronal cultures with increasing concentrations (˜0.5-˜50 ng/mL) of recombinant OSTN. In particular, the human neuronal cultures were treated with recombinant OSTN at a concentration of ˜0.5 ng/mL, ˜5 ng/mL, or ˜50 ng/mL. The data are represented as mean±SEM from n=5.
No role has previously been described for OSTN in nervous system development or particularly human nervous system development; however, OSTN has been reported to be secreted from bone-forming cells to promote the proliferation of bone precursors. In order to assess the roles of OSTN in human neuronal function, human primary neuronal cultures were treated with increasing concentrations of an osteocrin-inducing agent, e.g., but not limited to, a recombinant human OSTN protein. After about 6 days, samples were fixed and stained for neuronal markers, e.g., dendritic and/or synaptic markers, to examine effects on neuronal connectivity (FIGS. 3A-3D). Neuronal excitatory synaptic connections can be assayed by any methods known in the art, e.g., by quantifying the density of closely apposed puncta labeling pre- and post-synaptic markers along neuronal dendrites.

human neurons = assay: neuronal survival assay: number of MAP2 positive cells; conditions: about 80,000 to about 130,000 cells/cm^2, where neighboring neurons could provide trophic support
Experimental: FIGS. 4A-4C are experimental data showing that osteocrin promotes human neuronal survival. FIGS. 4A-4B are fluorescent images showing culture of primary human neurons with or without recombinant OSTN. In FIGS. 4A-4B, primary human neurons were cultured for 10 days in vitro with and without recombinant OSTN (˜50 ng/ml), fixed and immunostained with neuronal marker MAP2 and nuclear marker DAPI. FIG. 4C is a quantitative bar graph showing the number of MAP2 positive neurons per measured area at DIV10 in human neuronal cultures with or without recombinant OSTN. The data are represented as mean±SEM. As used herein throughout the specification, the abbreviation “DIV” stands for Day In Vitro, i.e., the number of days neurons have grown in culture.
As presented herein, the inventors discovered OSTN as a human-specific activity-regulated secreted molecule. […] Neurons were grown, e.g., at a density of about 40,000 cells/cm^2, in the presence or absence of OSTN (e.g., ˜50 ng/ml) for a period of time, e.g., about 6 days between DIV4 to DIV10. After the period of time (e.g., about 6 days), samples were fixed and stained for dendritic and/or nuclear markers (FIGS. 4A-4B). Neuronal survival was assayed, for example, by quantifying the number of MAP2 positive cells after the neurons were cultured with or without OSTN for a pre-determined period of time (e.g., detected at DIV10). […]

primary human neurons = assay: human axonal growth assay in microfluidic chambers
Experimental: FIGS. 5A-5G are experimental data showing that osteocrin promotes human axonal growth. FIG. 5A is a schematic diagram of microfluidic chambers, e.g., for use in a human axonal growth assay. The bracket denotes the area where images were approximately acquired. In FIGS. 5B-5E, primary human neurons were cultured for 21 days in vitro in the microfluidic chamber with (FIG. 5C and FIG. 5E) and without (FIG. 5B and FIG. 5D) recombinant OSTN (˜100 ng/ml). FIGS. 5B-5C are brightfield images of axons imaged live by a bright-field microscope. FIGS. 5D-5E are fluorescent images of axons fixed and immunostained with axonal marker Neurofilament (NF). FIG. 5F is a quantitative bar graph showing axonal length extension of OSTN-treated neurons, normalized to the control experiment. FIG. 5G is a quantitative bar graph showing the number of MAP2-positive neurons per measured area inside the chamber. The data are represented as mean±SEM.
To assess the effect of OSTN on axonal outgrowth, a human axonal growth assay was developed by using microfluidic chambers (e.g., obtained from Xona Microfluidics, Temecula, Calif.) (FIG. 5A). In this assay, primary human neurons were seeded in the presence or absence of OSTN into the microfluidic chambers and cultured for a sufficient period of time to allow their axons grow through microchannels that were designed to be small enough to only allow axons, not dendrites, to pass through. For example, after about 21 days, axons were imaged both live (FIGS. 5B-5C) and after stained with an axonal marker, e.g., an anti-neurofilament antibody (FIGS. 5D-5E). Human axons grew slowly in the absence of OSTN and at DIV21 only few axonal processes were visible (FIGS. 5B and 5D). […] These findings shown that human-specific activity-regulated factor OSTN is a regulator of the axonal growth in human neurons.

osteocrin expression = assay: induction of osteocrin expression in human cultures; conditions: addition to human cultures
[2] = recombinant OSTN ~50 ng/mL, about 10 days in vitro

| Molecule | dendritic density following OSTN treatment ([1]; data not shown) | total dendritic length following OSTN treatment ([1]; data not shown) | expression of PSD95 and synapsin (immunostaining) compared to control neurons [1, 2] | network of microtubules (MAP2 immunostaining) compared to control neurons [1, 2] | increase in excitatory synapse density as compared to mock-treated controls ([1]; recombinant human OSTN protein, increasing concentrations (~0.5-~50 ng/mL), after about 6 days, closely apposed pre- and post-synaptic puncta along dendrites) | significant increase in neuronal survival at standard or higher densities (human neurons) | number of neuronal cells (MAP2-positive) in the chambers with OSTN treatment (primary human neurons; recombinant OSTN ~100 ng/ml, DIV21) | axonal growth in the presence of OSTN (primary human neurons; recombinant OSTN ~100 ng/ml, about 21 days in vitro, imaged live and neurofilament stained) | increase in axonal growth of human neurons as compared to neural cells without treatment of OSTN (primary human neurons; summary statement in the description) | effect on induction of osteocrin expression (osteocrin expression) |
| --- | --- | --- | --- | --- | --- | --- | --- | --- | --- | --- |
| B1 | Increases were also observed | Increases were also observed | expressed higher levels of PSD95 and synapsins | formed a denser network of microtubules | at least 3 fold | not observed | did not appear to change | neurons grow axons of dramatic lengths and complexities | at least 2 fold |  |
| B2 |  |  |  |  |  |  |  |  |  | does not have any significant effect |
